In US20110142849A1:

Target: recombinant human Pcsk9 (aa 31-692) with C-terminal his6 tag (human) (UniProt Q8NBP7)
Experiment: TR-FRET, disruption of hLDL-R-Eu and hPcsk9-AF

Chain of recombinant human Pcsk9 (aa 31-692) with C-terminal his6 tag (human) (Q8NBP7 other isoform, or with tags, fused parts or gaps limits assumed, form in doubt): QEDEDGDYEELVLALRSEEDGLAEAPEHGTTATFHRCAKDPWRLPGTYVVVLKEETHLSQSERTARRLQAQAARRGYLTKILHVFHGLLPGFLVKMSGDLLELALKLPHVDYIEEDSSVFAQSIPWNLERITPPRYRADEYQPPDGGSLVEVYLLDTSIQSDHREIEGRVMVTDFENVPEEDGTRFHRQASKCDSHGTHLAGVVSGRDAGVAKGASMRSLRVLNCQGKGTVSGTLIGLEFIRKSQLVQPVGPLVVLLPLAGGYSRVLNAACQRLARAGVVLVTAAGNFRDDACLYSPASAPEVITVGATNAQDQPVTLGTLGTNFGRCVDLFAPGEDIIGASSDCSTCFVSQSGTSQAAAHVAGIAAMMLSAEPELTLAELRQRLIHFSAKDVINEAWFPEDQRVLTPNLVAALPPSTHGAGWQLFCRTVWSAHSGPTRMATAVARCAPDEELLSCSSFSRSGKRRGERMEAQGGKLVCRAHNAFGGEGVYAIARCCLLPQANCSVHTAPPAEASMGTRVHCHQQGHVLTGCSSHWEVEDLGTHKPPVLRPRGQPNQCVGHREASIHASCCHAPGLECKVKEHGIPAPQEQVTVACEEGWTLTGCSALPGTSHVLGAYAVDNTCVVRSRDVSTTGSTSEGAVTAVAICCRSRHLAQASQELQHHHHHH

IC50: 2.5 µM
Substance: EGF-A peptide
